Measurements from article PMC7385642.
Where “and” joins values, the source holds several entries; their conditions need not be identical. Equal entries are not always repeated.

How the values were obtained:
[1] = target: YSD1_16, auxiliary protein of phage YSD1 (in the virion) (phage YSD1); assay: cryo-EM structure; single-particle icosahedral reconstruction of the head of purified YSD1 virions (assembled in infected bacteria), 3.8 Å
[2] = target: YSD1_17, major capsid protein of phage YSD1 (in the virion) (phage YSD1); assay: as above
[3] = target: YSD1_22 delta-HP (residues 45-69 removed and replaced with a glycine) with C-terminal hexa-histidine tag (phage YSD1); assay: SEC-MALS; in-line refractive index and multi-angle laser light scattering (DAWN HELEOS-II, Optilab T-rEX), 25 mM Tris pH 8.0, 200 mM NaCl
[4] = target: YSD1_22, tail-tube protein of phage YSD1 (in the virion tail) (phage YSD1); assay: cryo-EM structure; helical reconstruction (C6 symmetry) of the tail tube of purified YSD1 virions (assembled in infected bacteria), 3.5 Å

YSD1_16, auxiliary protein of phage YSD1 (in the virion) (natural protein)
stoichiometry N [1]: 3

YSD1_17, major capsid protein of phage YSD1 (in the virion) (natural protein)
stoichiometry N [2]: 5 and 6

YSD1_22 delta-HP (residues 45-69 removed and replaced with a glycine) with C-terminal hexa-histidine tag (natural protein)
stoichiometry N [3]: 6

YSD1_22, tail-tube protein of phage YSD1 (in the virion tail) (natural protein)
stoichiometry N [4]: 6
